Tests used:
[1] = Blood half-life from serum fluorescence after tail injection; assay type: in vivo; conditions: mouse, IV; single decay constant fit
Procedure: Using these procedures and PEG's of different molecular weights, PEG-like NIR fluorochromes of different molecular weights, volumes and pharmacokinetics were synthesized, with results summarized in Table 3B. Blood half-lives were determined by tail injection into mice and measuring serum fluorescence as a function of time. Data (fluorescence versus time) were fit to a single decay constant equation to yield blood half-lives. Human pharmacokinetics will be far slower than that of mice.

[2] = Quantum yield determination; assay type: physicochemical; conditions: for Quantum Yield: Table 3B, IR-783 dipeptides; for Quant. Yield: Table 5, in PBS
Procedure: Quantum yields were determined as described in Demas et al., “Measurement of photoluminescence quantum yields. Review”, Journal of Physical Chemistry 75, 991-1024 (1971), and Shao et al., “Facile Synthesis of Monofunctional Pentamethine Carbocyanine Fluorophores. Dyes and pigments: an international journal 90, 119-122 (2011). For IR-783 a reference quantum yield of 0.043 was used (see Li et al., “Synthesis and characterization of glucosamine-bound near-infrared probes for optical imaging”, Organic letters 8, 3623-3626, 2006); for fluorescein a reference quantum yield was […] (see Sjoback et al., “Absorption and florescence properties of fluorescein”, Spectrohimica Acta Part A 51, L7-L21, 1995). For Cy3 a reference quantum yield of 0.31 was used (Luminprobe Inc). For PN(783)'s, excitation was at 730 nm and emission spectra were recorded from 765 nm to 870 nm in PBS and maximum emission used. For PN(545)'s, excitation was at 515 nm and emission spectra were recorded from 538 nm to 700 nm in PBS and maximum emission used. For PN(497)'s, excitation was at 450 nm and emission spectra were recorded from 475 nm to 620 nm in PBS and maximum emission used. Absorbance of each probe was adjusted less than 0.1. Measurements were made in triplicate and are expressed as mean±SD.

[3] = test system: HT-29, a human colon carcinoma cell line; experiment: PN and peptide binding to cells (non-specific binding, FACS); assay type: cell-based; conditions: HT-29 cells, 30 min at 37° C., FACS
Procedure: HT-29, a human colon carcinoma cell line, was from the American Tissue Culture Collection and maintained according to their instructions. Cells were seeded on 24-well plates at 5×10^5 cells/well in culture medium (RPMI 1640 with 10% FBS) the day before the assay. The day of assay, medium was removed, wells rinsed twice with DPBS (+Ca, +Mg), and 100 μl of 2% FBS/DPBS (+Ca, +Mg) added. 100 μL of Nanoprobes (2 μM) in DPBS (+Ca, +Mg) was added to cells and incubated for 30 min at 37° C. (Probe concentrations were determined spectrophotometrically (783 nm, extinction coefficient of 314 471 cm^−1 M^−1 for IR-783; 497 nm, extinction coefficient of 68 000 cm^−1 M^−1 for Fluorescein; 545 nm, extinction coefficient of 150 000 cm^−1 M^−1 for Cy3). Cells were detached by Trypsin/EDTA and assayed for fluorescence by FACS (BD 7 laser LSR2 for nanoprobes with IR-783; BD 3 laser LSR2 for nanoprobes with Fluorescein or Cy3).

[4] = PN and peptide size (volume, diameter) by FPLC gel filtration (Superdex 200, globular protein standards); assay type: physicochemical; conditions: for Molecular Volume FPLC: Table 3B, dipeptides; for Volume FPLC (diameter) / Volume FPLC: Table 5; for Volume FPLC (diameter): converted from globular protein equivalent MW; for Volume FPLC: globular protein equivalent molecular weight
Procedure: DOTA-Lys-Cys(IR783)-NH2 is then dissolved in DMSO, with 2 equivalents of an NHS ester of PEG and 6 equivalents of DIPEA. The reaction was at room temperature for 5 days. Product was purified by reverse phase HPLC separation. Product molecular weight was by matrix-assisted laser desorption ionization time-of-flight mass spectrometry (MALDI-TOF MS), with product molecular volume by size exclusion FPLC using globular protein standards (GE Healthcare life science AKTApurifier 10).
The mass spec of low molecular weights (MW) were obtained by MS-ESI Micromass (Waters) and high MW molecules were determined through MALDI-TOF analyses at the Tufts University Core Facility. RP-HPLC (Varian ProStar detector and delivery modules) employed an eluant A (0.1% TFA/water) and eluant B (0.1% TFA and 9.9% water in acetonitrile). Probe size (volume) was determined by FPLC using an ÄKTA Purifier 10 and Superdex™ 200 10/300GL column (GE Healthcare) with a running buffer of 0.05 M sodium phosphate, 0.15 M NaCl (0.1% Tween, pH 7.2) and flow rate of 0.8 ml/min. Standards (GE Healthcare) were Ferritin, Ribonuclease A, Carbonic Anhydrase, and Conalbumin and Blue Dextran 2000. To obtain probe volumes, Mr (apparent molecular weight based on size exclusion retention) was plotted versus Kav. Kav=(Ve−Vo)/(Vt−Vo), Vt=total volume, Ve=elution volume, Vo=void volume.
The column was calibrated with globular protein standards, and globular protein equivalent molecular weights (in kDa) were obtained (Table 5, column 5). These were converted to PN diameters in nm using the relationship: Radius in nm=[…] where M is the molecular weight of a globular protein expressed in daltons (see Erickson, “Size and Shape of Protein Molecules at the Nanometer Level Determined by Sedimentation, Gel Filtration, and Electron Microscopy”, Biological Procedures Online 2009, 11(1): 32-50). PN's diameters ranged from 3.0 to 11.8 nm (see FIG. 23a). Using PEG's of 5 kDa and 30 kDa, selected for their low polydispersity, PN's were synthesized using IR-783, Cy3 and Fluorescein (see FIG. 22a) and their sizes determined (see FIGS. 23a, 23b, 23c). With the 5 kDa PEG and these three fluorochromes (see the magenta chromatograms in FIGS. 22a, 23b and 23c) PN diameters were 4.3 nm. With the 30 kDa PEG and these three fluorochromes (blue chromatograms, 23a, 23b, 23c), PN diameters were now 10.0 nm. For reference, the diameter of a 67 kDa albumin determined by this method was 5.4 nm.

[5] = Circulating form of PN's (FPLC of serum after IV injection); assay type: in vivo, mouse; conditions: nude mice, 20 nmoles
Procedure: 20 nmoles of PN(783)4.3, PN(783)6.1, or PN(783)10.0 was injected (IV, tail vein) into nude mice (female; 25-30 g; 6-8 weeks old; nu/nu). At the indicated time, 50 μl of blood was collected with microhematocrit capillary tube (Fisher Scientific) from the tail, and transferred to Eppendorf microcentrifuge tube with anticoagulant (EDTA) coating (Fisher Scientific). Tubes were centrifuged (5000 rpm for 5 minutes), and the supernatant was injected to the FPLC, a ÄKTA Purifier 10 with Superdex™ 200 10/300GL column.

[6] = mouse, in vivo
Procedure: At two hours post injection, agent is in the blood and interstitium. By 24 hours post injection, tumors are becoming apparent as agent is being cleared. At 48 hours, labeling is highly tumor selective. […] By surface fluorescence, as with SPECT, labeling is highly tumor selective at 48 hours. Biodistribution as organ radioactivity concentrations FIG. 26(c) and total organ radioactivity FIG. 26(d) were obtained by dissection and ^111In counting at 24 hours and 48 hours post injection. Even at 48 hours post injection some 7.5% of injected dose is in the blood, with less than 5% in liver, even though the diameter of PN(783)10.0 exceeds that of albumin (6.7 nm). Data are means and standard deviations. […] By 72 hours, some 17% of injected dose was retained, approximately half of which was still in the blood based on FIG. 26d.

HT-29 tumor = assay type: in vivo, mouse
From the text: A Kodak FX multispectral imaging system was used (Carestream Molecular Imaging, Rochester, N.Y.). Excitation at multiple wavelengths (620, 650, 690, 710, 720, 730, 750 and 760 nm) with the emission at 830 nm was setup for IR-783 spectrum; Excitation at multiple wavelengths (420, 440, 460, 480, 510, 520, 530, and 540 nm) with the emission at 600 nm was setup for Cy3 spectrum; Excitation at multiple wavelengths (450, 470, 510, 520, 530, 540, 550, 570, and 590 nm) with the emission at 700 nm was setup for mCherry; with manufacturer's software to separate (unmix) the IR-783 spectrum, Cy3 spectrum, or mCherry spectrum from skin autofluorescence and chlorophyll fluorescence from food. X-ray images were taken after fluorescence images. Animals were anesthetized with 2% isoflurane with O2 flow (2 I/min) during imaging.
Female nude mice (25-30 g; 6-8 weeks old; nu/nu) were anesthetized with 2% isoflurane/O2. HT-29 or mCherry-HT-29 cells were detached, pelleted and 200 μl of cell suspension containing 10^6 cells in Matrigel (BD Bioscience) was injected subcutaneously into right and left shoulders. Tumors were allowed to grow 5-7 days before experiments.
The imaging was performed by Triumph II multimodality imaging system (Gamma Medica Ideas, LLC) comprising XSPECT with four CZT (Cadmium Zink Telluride) detectors and X-O CT with CMOS detector. SPECT data of the ^111In-labeled compound was acquired for 60 minutes using 5-pinhole collimators and processed with 3D-OSEM algorithm using 4 subsets and 5 iterations. 3-dimensional CT data was processed with modified Feldkamp software. […] Animals were under isoflurane anesthesia (1.5%) with O2 flow (1.5 l/min) and kept warm during the imaging with a heated animal bed.
150 μl of ^111In-labeled PN(783)10 (400 μCi, ˜2 nmole) were injected to tumor-bearing animals by tail vein (IV). 24 hours or 48 hours later, animals were sacrificed, and tumors, blood, liver, spleen, stomach, kidneys, small intestine, lung, heart, tail, fat, and muscle, were collected. Radioactivity was measured with Perkin Elmer, Wizard2 2480 gamma counter.

Substance	Serum half-life [1] [h]	Quantum Yield [2]	Quant. Yield [2]	Cell NSB (percent of cells with fluorescence higher than unstained cell) [3] [%]	Molecular Volume FPLC [4] [kDa]	Volume FPLC (diameter) [4] [nm]	Volume FPLC [4] [kDa]	circulating form after injection (FPLC elution vs pre-injection sample) [5]	Whole body radioactivity half-life [6] [h]	Whole body radioactivity, % of injected dose [6] [%]	^111In-PN(783)10 elimination half-life [6] [h]	tumor concentration (HT-29 tumor; HT29 tumor, 48 hours post injection, IV) [% ID/gm]	injected dose in the kidney (HT-29 tumor; mouse, in vivo) [%]	injected dose in the liver (HT-29 tumor; mouse, in vivo) [%]
(DOTA)Lys(PEG2K)-Cys(IR-783) [PN(783)3.0]	0.0233	0.15	0.13	50	11.2	3.0	11.2							
(DOTA)Lys(PEG10K)-Cys(IR-783) [PN(783)6.1]		0.17	0.16	14	100.7	6.1	100.7	identical for pre-injection samples and for sera from injected mice						
(DOTA)Lys(PEG20K)-Cys(IR-783) [PN(783)8.4]	0.293	0.17	0.16	14	262.5	8.4	262.5							
(^111In-DOTA)Lys(PEG30 kDa)-Cys(IR-783) [^111In-PN(783)10.0]									7.8	13.75±0.74	7.8	7.28±0.93	0.44±0.02	4.71±0.38

— patent US20150258217A1, “Methods of Synthesizing and Using Peg-Like Fluorochromes” (THE GENERAL HOSPITAL CORPORATION, priority 2012, published 2015)
